Laboratory results as given in publication PMC2824085 (2010).

Molecular target: Man9GlcNAc2 glycopeptide isolated from soybean agglutinin (soybean, UniProt P05046, Man9GlcNAc2 oligosaccharide, N-linked)
Assay: SPR; glycopeptide immobilized

Chain of Man9GlcNAc2 glycopeptide isolated from soybean agglutinin (P05046 whole entry): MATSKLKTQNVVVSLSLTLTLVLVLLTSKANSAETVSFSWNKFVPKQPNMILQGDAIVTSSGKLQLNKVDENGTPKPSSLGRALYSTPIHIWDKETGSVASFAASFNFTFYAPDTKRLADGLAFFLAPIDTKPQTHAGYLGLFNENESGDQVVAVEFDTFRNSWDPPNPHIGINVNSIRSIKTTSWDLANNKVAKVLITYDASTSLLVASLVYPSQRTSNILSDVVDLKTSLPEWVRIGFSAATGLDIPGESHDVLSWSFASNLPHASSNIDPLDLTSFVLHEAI

B1: monomeric carbohydrate-recognition domain (CRD) from DC-SIGN (domain or fragment)
chain: ERLCHPCPWEWTFFQGNCYFMSNSQRNWHDSITACKEVGAQLVVIKSAEEQNFLQLQSSRSNRFTWMGLSDLNQEGTWQWVDGSPLLPSFKQYWNRGEPNNVGEEDCAEFSGNGWNDDKCNLAKFWICKKSAASCSRDEEQFLSPAPATPNPPPA
Binder B1 has a Kd of 66 µM.
